“And” between values parts separate entries of the source, which are not always exact repeats. Equal entries are not always repeated.
Columns and labels:
[1] = target: T1, Recombinant human ANG-2 (R&D Systems, Cat #623-AN-025/CF) (human, UniProt O15123 19-496, limits assumed); test: ELISA on rhANG-2 by an independent team; ratio of average EC50 against Faricimab
T1 construct: also called rhANG-2
T1 sequence (looked up): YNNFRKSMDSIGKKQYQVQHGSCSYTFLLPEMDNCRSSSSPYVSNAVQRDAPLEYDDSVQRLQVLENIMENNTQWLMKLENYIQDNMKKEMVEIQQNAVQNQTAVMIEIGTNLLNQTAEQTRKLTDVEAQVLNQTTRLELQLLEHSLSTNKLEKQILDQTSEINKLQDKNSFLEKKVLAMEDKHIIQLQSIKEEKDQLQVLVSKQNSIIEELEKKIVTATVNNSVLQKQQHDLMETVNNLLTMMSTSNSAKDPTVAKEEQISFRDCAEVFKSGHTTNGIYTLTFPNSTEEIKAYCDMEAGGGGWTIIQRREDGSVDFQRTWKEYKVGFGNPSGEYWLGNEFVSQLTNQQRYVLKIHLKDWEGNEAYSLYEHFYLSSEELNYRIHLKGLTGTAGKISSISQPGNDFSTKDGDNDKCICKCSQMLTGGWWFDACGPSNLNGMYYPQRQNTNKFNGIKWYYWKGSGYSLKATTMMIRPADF

[2] = target: T1, Recombinant human ANG-2 (R&D Systems, …); test: ELISA; rhANG-2 (R&D) coated, anti-human IgG Fc-HRP detection
Description: The binding was detected by HRP-conjugated donkey anti-human IgG Fcγ antibody (Jackson ImmunoResearch Laboratories, Cat #709-035-098).

[3] = target: T2, Recombinant human VEGF121 (Peprotech, Cat #100-20A) (human, UniProt P15692-9 27-147); test: ELISA; rhVEGF121 coated, anti-human IgG Fc-HRP detection
T2 construct: Bought protein; also called rhVEGF121; rh VEGF121
T2 sequence (looked up): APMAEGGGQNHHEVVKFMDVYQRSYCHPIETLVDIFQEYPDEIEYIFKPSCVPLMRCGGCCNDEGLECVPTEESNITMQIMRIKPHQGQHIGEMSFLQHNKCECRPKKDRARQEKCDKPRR
Method: Donkey anti-human IgG Fcγ-HRP was used for detection (Jackson ImmunoResearch Laboratories, Cat #709-035-098) and visualized by TMB substrate. OD450 nm readings were measured by Victor 3 (PerkinElmer 1420 Multilabel Counter).

[4] = target: T1, Recombinant human ANG-2 (R&D Systems, …); test: ELISA on rhANG-2 by an independent team; first of three runs by an independent team (average 0.0491 nM)
[5] = target: T3, rhPlGF-1 (Peprotech_100-06) (human, UniProt P49763-2 19-149); test: ELISA: rhPlGF-1_Peprotech coated at 1 ug/mL, RO-101_Sample 1 from 100 nM in 1:3 dilutions, detected with anti-human IgG Fc-gamma-HRP
T3 construct: Bought protein; also called rhPIGF-1; PIGF-1
T3 sequence (looked up): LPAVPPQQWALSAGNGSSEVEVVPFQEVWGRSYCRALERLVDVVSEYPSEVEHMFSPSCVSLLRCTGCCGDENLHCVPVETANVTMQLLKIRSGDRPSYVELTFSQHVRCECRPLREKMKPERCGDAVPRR
Method: Third, the binding to rhPIGF-1 or rhPIGF-3 was tested in comparison with rhVEGF₁₆₅. Target proteins were used to coat Corning 9017 medium binding plates at 1 μg/mL and 100 μl per well. […] Donkey anti-human IgG Fcγ-HRP was used for detection. OD450 nm readings were measured by Victor 3.

[6] = target: T4, rhVEGF-D (AcroBio_VED-H5228) (human, UniProt O43915 89-205, limits assumed); test: ELISA: rhVEGF-D_AcroBio coated at 1 ug/mL, RO-101_Sample 1 titrated, detected with anti-human IgG Fc-gamma-HRP
T4 construct: domain: PDGF domain; Bought protein; not shown: His tag
T4 sequence (looked up): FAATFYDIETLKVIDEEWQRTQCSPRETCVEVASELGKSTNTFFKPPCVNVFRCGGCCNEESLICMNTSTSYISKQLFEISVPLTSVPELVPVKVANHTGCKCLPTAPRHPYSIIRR
Method: Different target proteins were used to coat Corning 9017 medium binding plates at 1 μg/mL and 100 μl per well. Donkey anti-human IgG Fcγ-HRP was used for detection. OD450 nm readings were measured by Victor 3.

[7] = target: T5, rrVEGF165 (rabbit; Kingfisher Biotech_RP1025U-025) (Rabbit, UniProt P49151 27-190 (pig entry)); test: ELISA on coated rabbit VEGF-A
T5 construct: Bought protein; also called Rabbit VEGF-A
T5 chain: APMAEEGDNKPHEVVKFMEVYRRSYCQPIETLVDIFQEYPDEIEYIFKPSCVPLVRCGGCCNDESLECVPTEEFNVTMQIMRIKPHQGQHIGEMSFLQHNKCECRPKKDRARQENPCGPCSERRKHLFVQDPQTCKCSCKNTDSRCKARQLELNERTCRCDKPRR

[8] = target: T6, rdVEGF163 (canine/dog; R&D 1603-CV-010/CF) (Canine/Dog, UniProt Q9MYV3-3 27-190, limits assumed); test: ELISA on coated dog VEGF-A
T6 construct: Bought protein; also called Dog VEGF-A
T6 sequence (looked up): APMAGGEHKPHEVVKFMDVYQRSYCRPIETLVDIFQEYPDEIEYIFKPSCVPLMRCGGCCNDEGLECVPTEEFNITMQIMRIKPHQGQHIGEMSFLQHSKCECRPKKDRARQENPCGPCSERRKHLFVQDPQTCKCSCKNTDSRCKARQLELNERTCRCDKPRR

[9] = target: T7, Recombinant human VEGF165 (Peprotech, Cat #100-20) (human, UniProt P15692-4 27-191); test: competition ELISA; rhVEGF165 coated, competitor biotinylated rhVEGF R2/KDR
T7 construct: Bought protein; also called rhVEGF165; rh VEGF165
Method: (§1) The mixture was added to ELISA binding plates which contained rhVEGF₁₆₅ coating. […] The receptor binding was detected by HRP-conjugated streptavidin (Jackson ImmunoResearch Laboratories, Cat #016-030-084) and visualized by TMB substrate.

[10] = target: T7, Recombinant human VEGF165 (Peprotech, …); test: competition ELISA; IC50 ratio against Faricimab for inhibition of VEGF165-VEGF R2/KDR binding
Method: as §1

fold better than Faricimab [1]: 58 fold
EC50 [2]: 0.0536 nM and 0.0498 nM and 0.0449 nM
EC50 [3]: 8.6 pM
EC50 [4]: 0.0526 nM
binding result [5]: no binding (tested: 100 nM (Log(nM) 2))
binding result [6]: no binding (tested: 100 nM (Log(nM) 2))
EC50 [7]: 0.0334 nM
EC50 [8]: 0.0237 nM
IC50 [9]: 1.99 nM
Fold [10]: 3.25 fold
B1: RO-101 VEGF/ANG-2 bispecific surrobody (bispecific antibody, human IgG1, L234A L235A)
heavy 1: not shown
heavy 2: EVQLVESGGGLVKPGGSLRLSCAASGFTFSSYGMHWVRQAPGKGLEWVAGISADSGDKNYADSVKGRFTISRDNAKNSLYLQMNSLRAEDTAVYYCAKEFISWIYTFDYLDYWGQGTLVTVSSASTKGPSVFPLAPSSKSTSGGTAALGCLVKDYFPEPVTVSWNSGALTSGVHTFPAVLQSSGLYSLSSVVTVPSSSLGTQTYICNVNHKPSNTKVDKKVEPKSCDKTHTCPPCPAPEAAGGPSVFLFPPKPKDTLMISRTPEVTCVVVDVSHEDPEVKFNWYVDGVEVHNAKTKPREEQYNSTYRVVSVLTVLHQDWLNGKEYKCKVSNKALPAPIEKTISKAKGQPREPQVCTLPPSRDELTKNQVSLSCAVKGFYPSDIAVEWESNGQPENNYKTTPPVLDSDGSFFLVSKLTVDKSRWQQGNVFSCSVMHEALHNHYTQKSLSLSPG
light: QPVLHQPPAMSSALGTTIRLTCTLRNDHDIGVYSVYWYQQRPGHPPRFLLRYFSQSDKSQGPQVPPRFSGSKDVARNRGYLSISELQPEDEAMYYCAMGARSSVTHVFGSGTQLTVLSQPKATPSVTLFPPSSEELQANKATLVCLMNDFYPGILTVTWKADGTPITQGVEMTTPSKQSNNKYAASSYLSLTPEQWRSRRSYSCQVMHEGSTVEKTVAPAECS
notes: Format SgG1; also called Sample 1

Reference: patent US20250250330A1 (REVOPSIS THERAPEUTICS, published 2025)
